Reference: the supplement of paper PMC10567573

B1: WSB1 (parent)
chain: DLKDDGNMMKVLRGHQNWVYSCAF
B2: ZNF193 (parent)
chain: QCIECGKSFNRHCNLIRHQKIHTV

Variants of: B1
Assay: protein stability index of a GFP-peptide fusion (GPS, HEK-293T) (PSI 1-6); higher = more stable
Conditions: c terminus: a fixed tail appended
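Note: lentivirally expressed fusions sorted by FACS into six bins by GFP to DsRed ratio, PSI derived from sequencing read proportions per bin multiplied by bin number.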

Variant	protein stability index
N7S	1.9
N7D	2.58
N7H	1.62
N7T	1.47
N7W	3.11
N7P	2.54
N7G	2.54
N7K	2
N7M	3.16
N7E	1.66
N7A	1.09
N7Q	1.76
N7V	2.03
N7R	1.71
N7I	3.63
N7C	1.83
G6P	2.28
G6N	2.12
G6L	1.13
G6C	2.17
G6A	2.03
G6E	2.38
G6W	3.64
G6Q	1.58
G6K	1.75
G6Y	1.77

Variant	protein stability index
G6M	1.72
G6S	1.92
G6R	1.62
G6D	1.94
G6V	1.74
G6I	2.23
K3N	1.43
K3D	2.57
K3Y	1.84
K3E	1.9
K3C	2.27
K3Q	1.37
K3A	2.75
K3L	1.83
K3M	2.06
K3H	1.93
K3P	1.07
K3W	2.49
K3T	2.65
K3S	1.77
K3F	2.12
K3R	1.48
K3G	2.54
M8S	2.02
M8C	1.38
M8K	2.15

Variant	protein stability index
M8T	1.54
M8N	2.29
M8H	2.34
M8Q	2.26
M8R	2.35
M8D	2.5
M8A	1.83
M8G	2.55
M8P	2.44
M8L	1.15
M8I	2.03
M8V	1.54
L2M	1.65
L2P	1.82
L2G	1.91
L2R	2.05
L2Q	1.83
L2V	1.29
L2H	1.68
L2E	1.95
L2F	1.59
L2C	2.13
L2K	1.54
L2D	2.39
L2I	1.69
L2Y	1.93

Variant	protein stability index
L2A	1.47
L2T	2.08
L2N	2.53
L2S	1.34
D4G	1.16
D4L	3.75
D4N	3.38
D4F	2.77
D4Q	2.63
D4M	2.4
D4R	1.59
D4I	2.67
D4E	1.91
D4P	2.28
D4C	2.88
D4W	2.2
D4Y	2.28
D4S	2.42
D4H	1.66
D4K	2.29
D4T	1.98
D1F	2.47
D1V	1.89
D1P	1.59
D1G	1.76
D1Y	1.78

Variant	protein stability index
D1K	2.65
D1E	2.24
D1T	2.3
D1H	1.78
D1N	2.02
D1M	2.04
D1Q	1.38
D1L	2.52
D1A	1.62
D1R	1
D5Q	2
D5M	3.35
D5E	1.96
D5G	1.68
D5H	1.86
D5N	2.04
D5Y	2.25
D5A	2.66
D5K	1.69
D5R	3.41
D5P	3.34
D5F	3.73
D5I	2.12
D5T	3.18

Variants of: B2
Assay: as above
Conditions: c terminus: a fixed tail appended

Variant	protein stability index
C2S	1.81
C2L	1.63
C2R	1.72
C2D	2.41
C2K	1.95
C2Y	2.03
C2V	2.73
C2P	1.34
V24R	3.83
V24S	4.21
V24Y	3.4
V24W	2.75
V24K	4.68
V24Q	3.87
V24E	4.36
V24M	4.19
V24A	4.26
H12K	3.98
H12C	2.92
H12Q	4
H12L	4.23
H12T	3.71
H12E	3.81

Variant	protein stability index
H12D	3.36
H12F	3.06
H12R	3.22
Q1M	3.54
Q1K	3.6
Q1V	3.21
Q1T	4.04
Q1P	2.62
C5V	2.13
C5T	1.95
C5Q	2.6
C5G	2.01
C5S	2.56
C5E	2.71
C5H	1.98
C5R	2.22
C5D	2.52
S8P	3.13
S8C	3.85
S8T	3.96
S8E	3.52
S8D	3.4
S8N	3.47

Variant	protein stability index
S8H	3.29
S8I	4.05
S8A	2.84
S8V	4.35
I21C	3.85
I21F	3.15
I21S	4
I21Q	4.49
I21E	4.1
I21M	3.72
I21P	3.1
I21R	3.81
R11L	3.5
R11N	4.26
R11M	2.86
R11Q	2.96
R11A	3.38
R11C	3.55
R11W	2.62
R11H	3.5
R11I	2.89
K20I	2.2
K20A	3.85

Variant	protein stability index
K20P	2.7
K20L	2.93
K20R	3.4
K20H	2.9
K20M	3.13
G6S	2.54
G6H	2.15
G6F	1.59
G6E	2.84
G6V	1.92
G6P	2.18
G6N	2.38
G6R	2.5
G6L	1.97
T23R	3.91
T23C	3.58
T23D	3.13
T23I	2.6
T23Q	4.09
T23S	3.68
T23L	2.7
T23K	3.47
N10T	4.08

Variant	protein stability index
N10R	3.97
N10V	3.75
N10K	4.64
N10I	3.28
N10P	2.8
N10Y	2.98
N10F	3.02
N10A	3.54
L15I	2.24
L15C	3.6
L15G	3.04
L15H	4.19
L15T	2.29
L15V	2.34
L15Q	2.9
L15R	3.01
L15N	3.29
L15M	3.35
L15D	3.18
L15K	2.94
F9N	2.56
F9V	1.92
F9A	2.24

Variant	protein stability index
F9Q	2.88
F9Y	3.01
F9I	2.13
F9P	3.25
F9L	1.9
F9H	2.55
F9T	2.59
F9C	3.47
E4K	3.1
E4D	2.78
E4G	2.04
E4A	3.12
E4N	2.76
R17C	3.57
R17K	3.74
R17Q	3.91
R17P	2.15
R17Y	2.52
R17I	2.31
R17V	2.99
R17H	3.13
R17M	2.95
R17L	2.9

Variant	protein stability index
I16Y	2.94
I16V	3.69
I16A	2.74
I16N	2.89
I16G	3.02
I16C	3.9
I16R	3.51
C13H	3.56
C13R	3.91
C13E	4.55
C13G	3.75
C13Y	3.29
C13N	3.2
C13M	2.91
C13P	2.99
H22P	2.62
H22S	2.45
H22R	2.89
H22W	1.74
H22C	4.83
H22D	2.08
H22A	2.76
H22T	2.11

Variant	protein stability index
Q19K	3.27
Q19W	2.25
Q19Y	2.59
Q19I	2.8
Q19R	2.98
Q19C	3.78
Q19V	2.5
Q19A	2.84
K7M	3.34
K7L	2.86
K7I	3.08
K7E	3.86
K7Y	2.29
K7W	2.18
K7Q	3.45
K7P	2.59
K7C	2.51
I3D	3.4
I3K	3.87
I3F	3.32
I3W	3.18
I3A	4.7
I3Q	4.09

Variant	protein stability index
I3E	4.31
I3H	4.06
I3V	3.73
I3P	4.11
I3T	4.2
I3S	4.17
N14G	2.72
N14E	3.94
N14A	3.9
N14H	3.44
N14W	2.29
N14Q	4.31
N14L	3.11
N14R	3.12
H18T	1.66
H18D	1.97
H18V	1.45
H18P	2.05
H18K	2.38
H18C	2.55
H18R	1.87
H18G	2.91
